The supplement of paper PMC10598134
± gives the standard deviation.

Test: collision cross section of modified peptide (TIMS, N2, iRT-aligned); higher = larger / more extended gas-phase ion
Method in brief: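 On a timsTOF Pro/HT (dda-PASEF, nitrogen, ~2.4 mbar), synthetic peptide pools were analysed after a 120-min nanoflow C18 separation at 60 °C and identified in MaxQuant. Three reference ions served for 1/K0 calibration, with run-wise alignment to the median iRT peptide deviation. Collision cross section comes from the Mason-Schamp equation, using the most abundant feature per charge state averaged over 1–3 technical replicates.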

[1] = charge state: 2, modification: Propionyl
[2] = charge state: 2, modification: Succinyl
[3] = charge state: 3, modification: Succinyl
[4] = charge state: 2, modification: Trimethyl (K)
[5] = charge state: 3, modification: Trimethyl (K)
[6] = charge state: 2, modification: hydroxyisobutyryl
[7] = charge state: 2, modification: Acetyl (K)
[8] = charge state: 3, modification: Acetyl (K)
[9] = charge state: 2, modification: Biotin
[10] = charge state: 3, modification: Biotin
[11] = charge state: 2, modification: Butyryl
[12] = charge state: 3, modification: Butyryl
[13] = charge state: 2, modification: Crotonyl
[14] = charge state: 2, modification: Dimethyl (K)
[15] = charge state: 3, modification: Dimethyl (K)
[16] = charge state: 2, modification: Formyl
[17] = charge state: 3, modification: Formyl
[18] = charge state: 2, modification: Glutarylation
[19] = charge state: 3, modification: Glutarylation
[20] = charge state: 2, modification: GlyGly (K)
[21] = charge state: 3, modification: GlyGly (K)
[22] = charge state: 2, modification: Malonyl
[23] = charge state: 2, modification: Methyl (K)
[24] = charge state: 3, modification: Methyl (K)
[25] = charge state: 3, modification: hydroxyisobutyryl
[26] = charge state: 2, modification: HexNAc (ST)
[27] = charge state: 2, modification: Nitro (Y)
[28] = charge state: 2, modification: Phospho (Y)
[29] = charge state: 3, modification: Crotonyl
[30] = charge state: 3, modification: HexNAc (ST)

For “SSFAYKDQNENR [_SSFAYK(Propionyl)DQNENR_]”, the collision cross section [1] was 401.75 ± 0.65 Å² and the collision cross section (charge state: 3, modification: Propionyl) was 462.04 Å².
SSFAYKDQNENR [_SSFAYK(Succinyl)DQNENR_] gave a collision cross section [2] of 400.73 ± 0.25 Å² and a collision cross section [3] of 453.96 Å².
“SSFAYKDQNENR [_SSFAYK(Trimethyl (K))DQNENR_]” showed a collision cross section [4] of 417.36 ± 0.75 Å² and a collision cross section [5] of 458.31 ± 1.5 Å².
“SSFAYKDQNENR [_SSFAYK(hydroxyisobutyryl)DQNENR_]” showed a collision cross section [6] of 405.04 ± 0.3 Å².
“SSGPGGQNVNKVNSK [_SSGPGGQNVNK(Acetyl (K))VNSK_]” gave a collision cross section [7] of 401.59 ± 1.4 Å² and a collision cross section [8] of 440.11 ± 2.5 Å².
For “SSGPGGQNVNKVNSK [_SSGPGGQNVNK(Biotin)VNSK_]”, the collision cross section [9] was 422.28 ± 2 Å² and the collision cross section [10] was 467.62 ± 0.34 Å².
With “SSGPGGQNVNKVNSK [_SSGPGGQNVNK(Butyryl)VNSK_]” the collision cross section [11] was 405.84 ± 0.57 Å² and the collision cross section [12] was 443.95 ± 2 Å².
For “SSGPGGQNVNKVNSK [_SSGPGGQNVNK(Crotonyl)VNSK_]”, the collision cross section [13] was 407.39 ± 1.4 Å².
In the case of “SSGPGGQNVNKVNSK [_SSGPGGQNVNK(Dimethyl (K))VNSK_]”, the collision cross section [14] is reported as 397.16 ± 1.7 Å² and the collision cross section [15] is reported as 437.57 ± 2.1 Å².
“SSGPGGQNVNKVNSK [_SSGPGGQNVNK(Formyl)VNSK_]” gave a collision cross section [16] of 398.34 ± 0.83 Å² and a collision cross section [17] of 435.41 ± 4.1 Å².
Work on “SSGPGGQNVNKVNSK [_SSGPGGQNVNK(Gluratylation)VNSK_]” yielded a collision cross section [18] of 409.46 ± 0.95 Å² and a collision cross section [19] of 446.64 ± 1.9 Å².
Work on “SSGPGGQNVNKVNSK [_SSGPGGQNVNK(GlyGly (K))VNSK_]” yielded a collision cross section [20] of 407.13 ± 1.4 Å² and a collision cross section [21] of 459.52 ± 3 Å².
“SSGPGGQNVNKVNSK [_SSGPGGQNVNK(Malonyl)VNSK_]” showed a collision cross section [22] of 402.61 ± 1.8 Å² and a collision cross section (charge state: 3, modification: Malonyl) of 439.94 ± 2.2 Å².
“SSGPGGQNVNKVNSK [_SSGPGGQNVNK(Methyl (K))VNSK_]” showed a collision cross section [23] of 397.83 ± 2.2 Å² and a collision cross section [24] of 442.38 ± 4.2 Å².
In the case of “SSGPGGQNVNKVNSK [_SSGPGGQNVNK(Propionyl)VNSK_]”, the collision cross section [1] is reported as 404.47 ± 0.49 Å².
For “SSGPGGQNVNKVNSK [_SSGPGGQNVNK(Succinyl)VNSK_]”, the collision cross section [2] was 404.66 ± 0.55 Å² and the collision cross section [3] was 443.1 ± 4 Å².
Sequence “SSGPGGQNVNKVNSK [_SSGPGGQNVNK(Trimethyl (K))VNSK_]” has a collision cross section [4] of 400.23 ± 1.6 Å² and a collision cross section [5] of 442.26 ± 2.4 Å².
Work on “SSGPGGQNVNKVNSK [_SSGPGGQNVNK(hydroxyisobutyryl)VNSK_]” yielded a collision cross section [6] of 407.53 ± 1.1 Å² and a collision cross section [25] of 447.88 ± 1.1 Å².
In the case of “SSSAGGQGSYVPLLR [_SSS(HexNAc (ST))AGGQGSYVPLLR_]”, the collision cross section [26] is reported as 427.89 ± 0.57 Å².
For STCTYVGAAK [_STCTY(Nitro (Y))VGAAK_], the collision cross section [27] was 340.86 ± 0.72 Å².
Work on STCTYVGAAK [_STCTY(Phospho (Y))VGAAK_] yielded a collision cross section [28] of 346.22 ± 0.0011 Å².
Sequence “STGLELETPSLVPVKK [_STGLELETPSLVPVK(Acetyl (K))K_]” has a collision cross section [7] of 431.84 ± 2.2 Å² and a collision cross section [8] of 518.73 ± 1.1 Å².
Sequence “STGLELETPSLVPVKK [_STGLELETPSLVPVK(Biotin)K_]” has a collision cross section [9] of 465.71 Å².
“STGLELETPSLVPVKK [_STGLELETPSLVPVK(Butyryl)K_]” showed a collision cross section [11] of 438.73 ± 0.53 Å² and a collision cross section [12] of 522.48 ± 2.1 Å².
“STGLELETPSLVPVKK [_STGLELETPSLVPVK(Crotonyl)K_]” gave a collision cross section [13] of 437.59 Å² and a collision cross section [29] of 521.61 Å².
“STGLELETPSLVPVKK [_STGLELETPSLVPVK(Dimethyl (K))K_]” gave a collision cross section [14] of 456.56 ± 2.3 Å² and a collision cross section [15] of 515.08 ± 1.7 Å².
Sequence “STGLELETPSLVPVKK [_STGLELETPSLVPVK(Formyl)K_]” has a collision cross section [16] of 431.64 ± 1.2 Å² and a collision cross section [17] of 516.5 ± 3 Å².
“STGLELETPSLVPVKK [_STGLELETPSLVPVK(Gluratylation)K_]” gave a collision cross section [18] of 457.67 ± 1.1 Å² and a collision cross section [19] of 527.31 ± 1.8 Å².
With “STGLELETPSLVPVKK [_STGLELETPSLVPVK(GlyGly (K))K_]” the collision cross section [20] was 452.54 ± 1.9 Å² and the collision cross section [21] was 530.27 ± 9.4 Å².
With “STGLELETPSLVPVKK [_STGLELETPSLVPVK(Malonyl)K_]” the collision cross section [22] was 445.74 ± 0.66 Å².
With “STGLELETPSLVPVKK [_STGLELETPSLVPVK(Methyl (K))K_]” the collision cross section [23] was 452.34 ± 2.6 Å² and the collision cross section [24] was 516.69 ± 3.1 Å².
“STGLELETPSLVPVKK [_STGLELETPSLVPVK(Propionyl)K_]” gave a collision cross section [1] of 435.15 Å².
For “STGLELETPSLVPVKK [_STGLELETPSLVPVK(Succinyl)K_]”, the collision cross section [2] was 449.72 ± 9.5 Å² and the collision cross section [3] was 499.21 ± 23 Å².
For “STGLELETPSLVPVKK [_STGLELETPSLVPVK(Trimethyl (K))K_]”, the collision cross section [4] was 461.73 ± 1.2 Å² and the collision cross section [5] was 522.47 ± 0.88 Å².
With “STGLELETPSLVPVKK [_STGLELETPSLVPVK(hydroxyisobutyryl)K_]” the collision cross section [6] was 440.07 ± 0.82 Å² and the collision cross section [25] was 511.71 ± 25 Å².
“STLEEPNLQPLQR [_S(HexNAc (ST))TLEEPNLQPLQR_]” gave a collision cross section [26] of 436.25 ± 0.56 Å².
“STNVTVAAARGIK [_STNVTVAAAR(Citrullination (R))GIK_]” gave a collision cross section (charge state: 2, modification: Citrullination (R)) of 395.23 ± 1.3 Å² and a collision cross section (charge state: 3, modification: Citrullination (R)) of 471.03 Å².
In the case of “STNVTVAAARGIK [_STNVTVAAAR(Methyl (R))GIK_]”, the collision cross section (charge state: 2, modification: Methyl (R)) is reported as 403.35 ± 0.97 Å² and the collision cross section (charge state: 3, modification: Methyl (R)) is reported as 483.31 ± 3.1 Å².
In the case of “SVGGSGGGSFGDNLVTR [_SVGGSGGGSFGDNLVT(HexNAc (ST))R_]”, the collision cross section [26] is reported as 423.68 ± 0.13 Å².
Work on SVSSSSYR [_SVSSSSY(Nitro (Y))R_] yielded a collision cross section [27] of 311.12 ± 0.16 Å².
In the case of SVSSSSYR [_SVSSSSY(Phospho (Y))R_], the collision cross section [28] is reported as 317.55 ± 0.69 Å².
Work on “SYGIPYIETSAK [_SY(Nitro (Y))GIPYIETSAK_]” yielded a collision cross section [27] of 386.26 ± 0.17 Å².
For “SYGIPYIETSAK [_SY(Phospho (Y))GIPYIETSAK_]”, the collision cross section [28] was 390.55 ± 0.64 Å².
Work on SYHLQIVTK [_SY(Nitro (Y))HLQIVTK_] yielded a collision cross section [27] of 345.14 ± 0.74 Å² and a collision cross section (charge state: 3, modification: Nitro (Y)) of 449.3 ± 1.2 Å².
SYHLQIVTK [_SY(Phospho (Y))HLQIVTK_] gave a collision cross section [28] of 357.29 ± 0.065 Å² and a collision cross section (charge state: 3, modification: Phospho (Y)) of 461.35 ± 0.12 Å².
In the case of “SYISSQTNDTHK [_S(HexNAc (ST))YISSQTNDTHK_]”, the collision cross section [26] is reported as 405.45 ± 0.67 Å².
“SYISSQTNDTHK [_SYIS(HexNAc (ST))SQTNDTHK_]” showed a collision cross section [30] of 474.05 ± 0.17 Å².
For “SYSVGASGSSSR [_SY(Nitro (Y))SVGASGSSSR_]”, the collision cross section [27] was 351.9 ± 1.2 Å².
“SYSVGASGSSSR [_SY(Phospho (Y))SVGASGSSSR_]” showed a collision cross section [28] of 356.68 ± 0.65 Å².
SYVDTGGVSR [_SY(Nitro (Y))VDTGGVSR_] gave a collision cross section [27] of 342.4 ± 0.16 Å².
With SYVDTGGVSR [_SY(Phospho (Y))VDTGGVSR_] the collision cross section [28] was 347.56 ± 0.066 Å².
“TAGSSGVTAGRPRPTAR [_TAGSSGVTAGRPRPT(HexNAc (ST))AR_]” showed a collision cross section [30] of 527.29 ± 0.18 Å².
For TAIQAAGYPDK [_TAIQAAGY(Nitro (Y))PDK_], the collision cross section [27] was 354.49 ± 0.55 Å².
Sequence “TAIQAAGYPDK [_TAIQAAGY(Phospho (Y))PDK_]” has a collision cross section [28] of 361.65 ± 9.9 Å².
TATLATLATR [_TATLATLAT(HexNAc (ST))R_] gave a collision cross section [26] of 364.8 ± 0.64 Å².
With “TELLPGDRDNLAIQTR [_TELLPGDRDNLAIQT(HexNAc (ST))R_]” the collision cross section [30] was 528.81 ± 0.18 Å².
“TEVLSPNSKVESK [_TEVLSPNSK(Acetyl (K))VESK_]” gave a collision cross section [7] of 411.3 ± 1.6 Å² and a collision cross section [8] of 448.45 ± 2.4 Å².
In the case of TEVLSPNSKVESK [_TEVLSPNSK(Biotin)VESK_], the collision cross section [9] is reported as 425.18 ± 3.5 Å² and the collision cross section [10] is reported as 487.32 ± 1.7 Å².
“TEVLSPNSKVESK [_TEVLSPNSK(Butyryl)VESK_]” gave a collision cross section [11] of 418.57 ± 0.77 Å² and a collision cross section [12] of 463.23 ± 20 Å².
Sequence “TEVLSPNSKVESK [_TEVLSPNSK(Crotonyl)VESK_]” has a collision cross section [13] of 417.97 ± 0.81 Å² and a collision cross section [29] of 452.38 ± 1.3 Å².
For “TEVLSPNSKVESK [_TEVLSPNSK(Dimethyl (K))VESK_]”, the collision cross section [14] was 400.19 ± 1.6 Å² and the collision cross section [15] was 477.45 ± 2.4 Å².
TEVLSPNSKVESK [_TEVLSPNSK(Formyl)VESK_] gave a collision cross section [16] of 404.6 ± 5.2 Å² and a collision cross section [17] of 443.86 ± 4.1 Å².
“TEVLSPNSKVESK [_TEVLSPNSK(Gluratylation)VESK_]” showed a collision cross section [18] of 408.15 ± 0.5 Å² and a collision cross section [19] of 453.95 ± 1.7 Å².
In the case of “TEVLSPNSKVESK [_TEVLSPNSK(GlyGly (K))VESK_]”, the collision cross section [20] is reported as 404.73 ± 5.7 Å² and the collision cross section [21] is reported as 492.13 ± 0.88 Å².
